This is an account of results in patent US20210309707A1 (Stanford University, published 2021).

The assay addresses T1, interferon-gamma receptor subunit 2 (IFN-γR2) (UniProt P38484 28-247, limits assumed).
T1 construct: Soluble purified protein (crystallised; analyte in SPR)
T1 sequence (looked up): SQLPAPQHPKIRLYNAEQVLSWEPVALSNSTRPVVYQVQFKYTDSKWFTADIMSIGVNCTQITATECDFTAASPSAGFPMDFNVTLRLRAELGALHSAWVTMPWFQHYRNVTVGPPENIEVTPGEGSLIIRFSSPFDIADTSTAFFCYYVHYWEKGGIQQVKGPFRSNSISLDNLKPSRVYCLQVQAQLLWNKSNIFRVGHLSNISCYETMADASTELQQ
Put plainly: SPR (Biacore T100, equilibrium); IFN-γR2 dilutions over captured IFN-γR1 in the presence of 50 nM mutant IFN-γ. How it is done: The structure of the IFN-γ signaling complex as described in Example 2 above provided opportunities to address new questions to further understand IFN-γ signaling and activity. By identifying the shared interactions, previously unknown, at sites IIa/IIb, one now can better understand IFN-γ signaling at each step of complex formation. Since IFN-γ is a dimeric cytokine driving the dimerization of four receptors, further experiments were performed to design and generate variants of IFN-γ to affect one or more of the different signaling intermediates. The design of the partial agonists was achieved by first engineering a version of IFN-γ that abolished binding to IFN-γR2 receptor. Based on the structure described in Example 2, a triple IFN-γ mutant having three amino acid substitutions K74A, E75Y, and N83R (See FIG. 3A) was designed and validated for the loss of measurable binding to IFN-γR2 as determined by surface plasmon resonance (FIGS. 3B-3D). Without being bound to any particular theory, several other mutations or combinations thereof of the IFN-γR2 binding site amino acids of IFN-γ as indicated in the crystal structure (FIG. 2), either alone or in combination with mutations within the IFN-γR1 binding site, could also result in similar effects on IFN-γR2 binding. […]

B1: triple IFN-γ mutant having three amino acid substitutions K74A, E75Y, and N83R (ligand)
chain: QDPYVKEAENLKKYFNAGHSDVADNGTLFLGILKNWKEESDRKIMQSQIVSFYFKLFKNFKDDQSIQKSVETIAYDMNVKFFRSNKKKRDDFEKLTNYSVTDLNVQRKAIHELIQVMAELSPAAKTGKRKRSQ
notes: also called IFN-γ (K74A/E75Y/N75R); IFN-γK74A/E75Y/N83A
Take B1: the binding result is recorded as “no binding”.
